Measurements from the supplement of paper PMC12042874.
± gives the uncertainty stated by the source.

test: amyloid nucleation score (Sup35N fusion, yeast selection) (log enrichment); library NNK2; higher = more nucleation; inactive = no reads after selection
Outline: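 Sup35N was fused to peptides of 20 random codons and expressed in psi-negative yeast, which were induced with 100 μM copper sulfate for 24 hours and then grown on medium lacking adenine and uracil for 7 days at 30°C. Plasmid inserts from input and output were sequenced on Illumina. The nucleation score is the DiMSum log enrichment of output over input reads, centred on the mode score of non-aggregating sequences. Sequences with under 100 input reads were left out, and random libraries had three technical output replicates.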

In order of falling amyloid nucleation score:
1. SFPVWPVMYGGNCFSCFSLG  9.094 ± 0.063
2. QKMRPNIKVFVYKNVGYNWC  8.562 ± 0.054
3. ATQVMMGVAEYACLYNCTHM  8.223 ± 0.078
4. AVQAIITHQTLGKQVFFWFE  7.85 ± 0.076
5. GCRAVRTWEPIGVAGEYFGS  6.232 ± 0.037
6. LNGCGVLRPVR  5.89 ± 0.067
7. YQNVVCRDIQIGFWNLADSI  5.824 ± 0.056
8. CTSASGTSPGWNKRGRNWGD  5.52 ± 0.095
9. VCQVFVNGVSSDRVAVLVVI  5.25 ± 0.059
10. WASFTSACRRLLSPCTPRSG  5.22 ± 0.1
11. VYRSRAVHATSLGSERFNTD  5.17 ± 0.1
12. RCIDSVLIMHITYFAAFGKL  5.08 ± 0.099
13. EPDELPYLLKASLMSLGHGP  4.64 ± 0.073
14. SCSERLSMWLRED  4.62 ± 0.047
15. WHGVDVIVRLMVAHPLGRTS  4.36 ± 0.11
16. GTVTLV  3.99 ± 0.11
17. TSGFSIIRVIVNYIYALETR  3.86 ± 0.12
18. IFISRVNDFTVMGGDWSFRG  3.64 ± 0.083
19. SLVLLNRSANWIDLLNKQQD  3.62 ± 0.12
20. LRVTGNVGLSFGAKGLARPD  3.33 ± 0.12
21. ICGCKRSTVLWVSCFGV  3.18 ± 0.12
22. ELWRYDINIERYKSTRSVYH  3.08 ± 0.055
23. IVRQIASFGRIRDRTRDDEW  3.05 ± 0.13
24. LVSIPSWCPTLASQKLIPR  2.94 ± 0.19
25. KNKQRYSPIITLLVTKSVAF  2.67 ± 0.056
26. RQVGNHSTYGLFNVQTRLRL  2.52 ± 0.079
27. YPISLWLFYGGSGAQTLVVR  2.51 ± 0.1
28. STVYIVCHGVILRVRMGPWL  2.46 ± 0.12
29. AVALYVSDSQDHPGNRNVLV  2.45 ± 0.099
30. VWLDIYSQLEDENVYSSYLD  2.44 ± 0.086
31. HYLNIRQDPY  2.4 ± 0.21
32. STSGVKAVQISLSSVPWRWD  2.34 ± 0.13
33. CRSFAVTDLRVYVKF  2.12 ± 0.12
34. NCVWNWRHWFTVVNSF  1.95 ± 0.089
35. GFYGLTVSSTEYKWSMIQIR  1.88 ± 0.077
36. LSQARVYLCYFEFSYFVVEP  1.83 ± 0.12
37. YTRGCSFHIRVSSLCGQYNI  1.65 ± 0.18
38. RTALLP  1.58 ± 0.52
39. WAKCRLTIMTKWSLLCGGLG  1.43 ± 0.34
40. LRGQEKLWGVACSLVLIVTA  1.39 ± 0.15
41. LMLRGLEEARAPRCESWPSW  1.21 ± 0.34
42. CELRIFTCHDSCAVLDRWME  1.16 ± 0.18
43. NCGRTNGLCPGYVCVSRLAW  1.09 ± 0.21
44. TYKCLTRATKGRNHVFRFCV  1.08 ± 0.15
45. LVVVKFTEVKALCFSVWGMG  1.05 ± 0.57
46. GKVRRIIWLSCKNG  1.05 ± 0.54
47. LFCTFKLRAMTFTSNKSRVV  1.04 ± 0.43
48. FLLWIHF  1.04 ± 0.44
49. PYRLHMCCWEPLRSMLFMSF  1.03 ± 0.31
50. DKYNTVRLCP  0.987 ± 0.5
51. DLEVLSLGGINFFVVDTFMI  0.964 ± 0.28
52. VDVRMDEWVDRTAFAWMMRV  0.875 ± 0.43
53. QMCIVDTNGRN  0.861 ± 0.6
54. DWCVNVIERSGDTLEVMCNF  0.817 ± 0.8
55. RRGKFEAANSWGD  0.792 ± 0.53
56. ILPYGVWTRIASIKLK  0.789 ± 0.17
57. AHHLSFGVNDCSTCERSVQ  0.77 ± 0.28
58. YVCLRRWNWRMKLTCVSKLG  0.734 ± 0.35
59. PNSYAETDWISLCSDSMSWH  0.721 ± 0.74
60. SVFVCTDIFK  0.702 ± 0.52
61. GSRDDSTVLVRKSSCRVEGS  0.665 ± 0.37
62. EWCQKGSAEIRASRCQ  0.58 ± 0.18
63. TSIYYISNIA  0.568 ± 0.24
64. VSLYRKGSASKEGGLERATD  0.55 ± 0.3
65. LVRMIIVYTCRW  0.533 ± 0.33
66. RGINDILRFKS  0.494 ± 0.44
67. GENKDYWGHGYVSLACNRQG  0.492 ± 0.38
68. WHWISAYCTFICRKVLKEMP  0.478 ± 0.4
69. VSDNGFFNRYNMTNCRIHGV  0.449 ± 0.57
70. RTPFEDKVSIGDDSRSRADL  0.414 ± 0.41
71. PGVMHICLCRTHTSRCKCTL  0.402 ± 0.57
72. YRFRVLCQVCNHGLRYKFFT  0.372 ± 0.37
73. GSRYLIGVEYE  0.319 ± 0.56
74. FMFRQCSQFMMGYYLLNG  0.313 ± 0.46
75. PRCRVAR  0.305 ± 1
76. MTLMKDCDMNISHSARAKAS  0.255 ± 0.18
77. ESTWVCIFSRVLYGGYCGDQ  0.244 ± 0.33
78. GSSVEMQLCELTSGGFDLSL  0.228 ± 0.32
79. YRCYTSGFLFFHGSCLNCKS  0.227 ± 1.1
80. DHSYRRYVVEGLFSVSQNGK  0.21 ± 0.54
81. RFCAMTYERLCVFVIF  0.197 ± 0.4
82. YFCERWMLSCIGGLFVNFLY  0.168 ± 0.15
83. PVLIVLYDIGSCKERKE  0.134 ± 0.55
84. KAHIAVDGIMA  0.117 ± 0.33
85. FANGRFMNPSHGLYSLPLKR  0.09 ± 0.51
86. TTHVNLIKRRGYFRRCVFQL  0.087 ± 0.79
87. NLRGETRGVKLCLIWDVGRA  0.078 ± 0.55
88. SRVGFFS  0.072 ± 1.1
89. LDRYLG  0.064 ± 0.3
90. CSPYVRSCTGYVEWGSIRTM  0.06 ± 0.29
91. ANTWVKHTLCVGRLQGDWGI  -0.029 ± 0.42
92. LHVMYQTAMRAFAWNVTDLG  -0.032 ± 0.8
93. SARPELCMPIIRLCGSREDQ  -0.056 ± 0.22
94. ADEVLYYGCVSSCLMFGVLI  -0.069 ± 0.35
95. DCYRPYWKVFIPLVIFGA  -0.076 ± 0.55
96. LRFPRGLNGNDPGSIAS  -0.085 ± 0.79
97. LVSNSSLSYPLDSYGSSRSD  -0.113 ± 0.49
98. LVAFFFVSPFGGGHIAIRLR  -0.114 ± 1.1
99. GNKCLSWVES  -0.12 ± 0.23
100. LELMEYPL  -0.153 ± 0.45
101. RQTSLKRL  -0.159 ± 1
102. MSPLH  -0.181 ± 0.39
103. SQFAVRKEGTDSEEFLKSVV  -0.197 ± 0.48
104. RESARRKAYLLSKNGSNWLH  -0.249 ± 0.5
105. VLNDFFWEHLPMGHNVGLTL  -0.252 ± 0.55
106. WKTWSPKYWGSFVR  -0.283 ± 0.46
107. YTMWGWLAAMVREMETLGSK  -0.284 ± 0.61
108. QGTQWFLLKVSAIVKQLRWT  -0.317 ± 0.79
109. WLLFMS  -0.353 ± 0.54
110. CIDVRDTWNVPSVDYSMVLY  -0.363 ± 1.1
111. SNEHKYFQNIATNVLV  -0.371 ± 0.64
112. LLFSSSSLPIGTGGYDLTAG  -0.408 ± 1.1
113. FGFWSPATVNNVRALIKDCV  -0.409 ± 0.53
114. TRYYMYIRDVH  -0.533 ± 0.44
115. LTGSFYQHNGMLSTPRHRCL  -0.547 ± 0.63
116. FLINFAMIISIFRLSYHRPV  -0.599 ± 0.55
117. FNIERCLLISGMLCSPAVEL  -0.602 ± 1.1
118. IFPVLPGTLYRCTMMC  -0.612 ± 0.32
119. GCTSTRRLVYC  -0.622 ± 0.29
120. SSNHTPTVVMHDHIPVLNFR  -0.628 ± 0.63
121. GYYRFLSSLLELTV  -0.628 ± 0.76
122. VRMNPITAGLCVQCLHTQRF  -0.654 ± 1
123. YLKKVQWYRQAYFGA  -0.694 ± 0.28
124. LVRLFS  -0.701 ± 0.63
125. ITCHGVVFSWLTRELLYTGL  -0.702 ± 0.45
126. KKEVINWYFLTYAGLEKLCL  -0.715 ± 0.48
127. VREYYRVERGSFGRISGGCN  -0.748 ± 0.78
128. KYRCLLRATPFDKEVGSTRF  -0.753 ± 1
129. SFITDRADCRQWLLRNNIFA  -0.771 ± 0.64
130. LSGMIGSSWAFVSLALIRYQ  -0.798 ± 0.64
131. PCLMEGFTS  -0.849 ± 0.64
132. DYVRCVDLSN  -0.863 ± 0.63
133. SRTSSKAYTPYFVSRGHDRY  -0.903 ± 0.76
134. RLNVL  -0.987 ± 0.53
135. FIWSYVLSRGSV  -1.03 ± 0.31
136. FFKGLSKSIQVGL  -1.06 ± 0.56
137. NVMSDYTFANTSITSCCY  -1.26 ± 0.64
138. ISPLLNVYRDYWLYMF  -1.37 ± 0.75
139. YWFPEASMFLIPL  -1.49 ± 1.1
140. NWVNQTS  -1.6 ± 0.48
141. LIVSKWVHLWGYNALDNKEK  -1.65 ± 0.62
142. ILYMTDKLDQSSCLGLMSSH  -1.81 ± 0.78
143. LAFFGVLSSFYSRFGIKTKM  -1.83 ± 0.54
144. WVWGIGSFRRSFQCWWWFSN  -1.86 ± 0.73
145. KNCFMIV  -2.26 ± 1
146. VEFYCSTERCLYDFTNG  -2.3 ± 0.75

With YQSDK the amyloid nucleation score was “inactive”.
In the case of SINWAFDYVSVLVGFD, the amyloid nucleation score is reported as “inactive”.
With VAFGLMDQDIFSRRILTRSS the amyloid nucleation score was “inactive”.
With ITCIAGWSNLNDYVFYTVAS the amyloid nucleation score was “inactive”.
For VTKVCGYLEFSMQVYRCVFH, the amyloid nucleation score was “inactive”.
For ICRPGYGY, the amyloid nucleation score was “inactive”.
For STGSNFDESSKQCFAFICKK, the amyloid nucleation score was “inactive”.
For HVLHCTYSQSSMEQLFCFNW, the amyloid nucleation score was “inactive”.
In the case of YHSFCWANMIHRINSIVRLL, the amyloid nucleation score is reported as “inactive”.
In the case of KDWRGMEDFMSVFFRSGLGS, the amyloid nucleation score is reported as “inactive”.
With SMQKG the amyloid nucleation score was “inactive”.
In the case of VMSDGMYTGKAYSLVLDMRI, the amyloid nucleation score is reported as “inactive”.
For KERAYRGNQAKKRLKTALFY, the amyloid nucleation score was “inactive”.
With NKLWFWMGHTMSVEFDLIDN the amyloid nucleation score was “inactive”.
For FLYPRYLVVMKHVLAGRCVA, the amyloid nucleation score was “inactive”.
In the case of TAKDAFMFQGLASLS, the amyloid nucleation score is reported as “inactive”.
For CMGFLYTNTYCGGILIELFI, the amyloid nucleation score was “inactive”.
In the case of FFYWL, the amyloid nucleation score is reported as “inactive”.
For LFKFDVPTNIKCYIRSSCSI, the amyloid nucleation score was “inactive”.
For CVMHVRHHYGDI, the amyloid nucleation score was “inactive”.
With FRMGY the amyloid nucleation score was “inactive”.
In the case of AAFLNWVVCEIENEEGMSWL, the amyloid nucleation score is reported as “inactive”.
For IFFALNSTPPYYIYPEFKLQ, the amyloid nucleation score was “inactive”.
